Experimental data reported in paper PMC5322768 (Developmental dynamics : an official publication of the …, 2016).
Values belong to the molecule of their own block, whether it stands above or below them.

What was measured:
[1] = target: TMEM47-GFP (murine TMEM47 tagged with GFP) (murine) (UniProt Q9JJG6); assay: co-IP
[2] = target: TMEM47-GFP (murine TMEM47 tagged with GFP) (murine, UniProt Q9JJG6 1-181); assay: co-IP
Chain of TMEM47-GFP (murine TMEM47 tagged with GFP) (Q9JJG6 whole entry): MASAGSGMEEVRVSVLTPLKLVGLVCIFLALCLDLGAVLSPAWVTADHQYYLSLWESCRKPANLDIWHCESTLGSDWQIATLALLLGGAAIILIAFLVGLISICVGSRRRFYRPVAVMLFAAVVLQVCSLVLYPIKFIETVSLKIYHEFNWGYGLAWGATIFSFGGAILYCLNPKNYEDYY

Chain of TMEM47-GFP (murine TMEM47 tagged with GFP) (murine) (Q9JJG6 whole entry): as above

precipitating fraction [1]: < 5%
Molecule: α-catenin (natural protein)

precipitating fraction [2]: < 5%
B1: β-catenin (natural protein, canine (endogenous in MDCK), UniProt B6V8E6 1-781, looked up)
chain: MATQADLMELDMAMEPDRKAAVSHWQQQSYLDSGIHSGATTTAPSLSGKGNPEEEDVDTTQVLYEWEQGFSQSFTQEQVADIDGQYAMTRAQRVRAAMFPETLDEGMQIPSTQFDAAHPTNVQRLAEPSQMLKHAVVNLINYQDDAELATRAIPELTKLLNDEDQVVVNKAAVMVHQLSKKEASRHAIMRSPQMVSAIVRTMQNTNDVETARCTAGTLHNLSHHREGLLAIFKSGGIPALVKMLGSPVDSVLFYAITTLHNLLLHQEGAKMAVRLAGGLQKMVALLNKTNVKFLAITTDCLQILAYGNQESKLIILASGGPQALVNIMRTYTYEKLLWTTSRVLKVLSVCSSNKPAIVEAGGMQALGLHLTDPSQRLVQNCLWTLRNLSDAATKQEGMEGLLGTLVQLLGSDDINVVTCAAGILSNLTCNNYKNKMMVCQVGGIEALVRTVLRAGDREDITEPAICALRHLTSRHQEAEMAQNAVRLHYGLPVVVKLLHPPSHWPLIKATVGLIRNLALCPANHAPLREQGAIPRLVQLLVRAHQDTQRRTSMGGTQQQFVEGVRMEEIVEGCTGALHILARDVHNRIVIRGLNTIPLFVQLLYSPIENIQRVAAGVLCELAQDKEAAEAIEAEGATAPLTELLHSRNEGVATYAAAVLFRMSEDKPQDYKKRLSVELTSSLFRTEPMAWNETADLGLDIGAQGEPLGYRQDDPSYRSFHSGGYGQDALGMDPMMEHEMGGHHPGADYPVDGLPDLGHAQDLMDGLPPGDSNQLAWFDTDL

precipitating fraction [2]: < 5%
B2: Par6B (natural protein, canine (endogenous in MDCK), UniProt A0A8I3PSX6 1-370, looked up)
chain: MNRSHRHGAGSGCLGTMEVKSKFGAEFRRFSLERSKPGKFEEFYGLLQHVHKIPNVDVLVGYADIHGDLLPINNDDNYHKAVSTANPLLRIFIQKKEEADYSAFGTDTLIKKKNVLTNVLRPDNHRKKPHIVISMPQDFRPVSSIIDVDILPETHRRVRLYKYGTEKPLGFYIRDGSSVRVTPHGLEKVPGIFISRLVPGGLAQSTGLLAVNDEVLEVNGIEVSGKSLDQVTDMMIANSRNLIITVRPANQRNNVVRNSRTSGSSGQSTDNSLLGYPQQVEPSFEPEDEDSDEDDIIIEDNGVPQQIPKAVPNTESFESLTQIELSFESGQNGFIPSNEVSLAPIASGTNTETRAPDQKLLEEDGTIITL

precipitating fraction [2]: < 5%
B3: aPKCλ–myc (myc-tagged aPKCλ) (enzyme, murine, UniProt Q62074 1-595, looked up)
chain: MPTQRDSSTMSHTVACGGGGDHSHQVRVKAYYRGDIMITHFEPSISFEGLCSEVRDMCSFDNEQPFTMKWIDEEGDPCTVSSQLELEEAFRLYELNKDSELLIHVFPCVPERPGMPCPGEDKSIYRRGARRWRKLYCANGHTFQAKRFNRRAHCAICTDRIWGLGRQGYKCINCKLLVHKKCHKLVTIECGRHSLPPEPMMPMDQTMHPDHTQTVIPYNPSSHESLDQVGEEKEAMNTRESGKASSSLGLQDFDLLRVIGRGSYAKVLLVRLKKTDRIYAMKVVKKELVNDDEDIDWVQTEKHVFEQASNHPFLVGLHSCFQTESRLFFVIEYVNGGDLMFHMQRQRKLPEEHARFYSAEISLALNYLHERGIIYRDLKLDNVLLDSEGHIKLTDYGMCKEGLRPGDTTSTFCGTPNYIAPEILRGEDYGFSVDWWALGVLMFEMMAGRSPFDIVGSSDNPDQNTEDYLFQVILEKQIRIPRSLSVKAASVLKSFLNKDPKERLGCHPQTGFADIQGHPFFRNVDWDMMEQKQVVPPFKPNISGEFGLDNFDSQFTNEPVQLTPDDDDIVRKIDQSEFEGFEYINPLLMSAEECV
